Numbering of substitutions follows the chain as printed. Where two headings read alike, the source gives them in different places. One block for each binder: values may come before it.
What was measured:
[1] = target: full-length (FL) human mGluR5 on BA/F3-mGluR5 clone 10C9 cells (human) (UniProt P41594); assay: cell-based or functional assay
[2] = target: human mGluR5 extracellular domain (human-mGluR5-ECD) (human) (UniProt P41594); assay: HTRF, soluble ECD
[3] = target: human mGluR5 extracellular domain (human-mGluR5-ECD) (human) (UniProt P41594); assay: HTRF, soluble ECD; remark: listed apart in the source
[4] = target: T1, rat mGluR5 extracellular domain (rat-mGluR5-ECD) (rat, UniProt P31424 21-504); assay: HTRF, soluble ECD
T1 construct: ECD construct made 'in a similar fashion' to the human one
Method: (§1) Binding of antibodies to mGluR5/mGluRJ measured via Homogeneous Time-Resolved Fluorescence (HTRF). Binding assays were performed using HTRF reagents from CisBio. Ten microliters of an antibody dilution series (highest final concentration of 30 nM) was incubated with 10 μl of mGluR-ECD (10 nM final concentration) in HTRF buffer (50 mM Phosphate buffer pH7, 0.8M KF (potassium fluoride), 0.2% BSA). Twenty microliters of Europium-labeled anti-hu-Fc donor (2 nM final concentration, CisBio Catalog No. 61HFCKLB) and 20 μl of XL665-labeled anti-Flag acceptor (60 nM final concentration, CisBio Catalog No. 61FG2XLB) were added to each well and incubated for 1 hour at room temperature. Alternatively, the antibody dilution series was incubated with 10 μl of biotinylated mGluR-ECD (10 nM final concentration), and 20 μl of Europium-labeled anti-hu-Fc donor (2 nM final concentration) and 20 μl of d2-labeled streptavidin acceptor (60 nM final concentration, CisBio Catalog No. 610SADLB) were added to each well. Fluorescence was measured at 620 and 665 nm with a delay of 300 μsec. Results were expressed as the ratio of signal at 665 nm over 620 nm. EC₅₀ values were calculated for binding of Ab1-Ab23 to human-mGluR5-ECD, of Ab1-Ab21 to rat-mGluR5-ECD, and of Ab1, Ab2 and Ab4-Ab12 to monkey-mGluR5-ECD and to human-mGluR1-ECD (TABLE 1).

[5] = target: full-length (FL) human mGluR5 on BA/F3-mGluR5 clone 10C9 cells (human) (UniProt P41594); assay: flow cytometry, BA/F3-mGluR5 10C9 cells, 10 ug/ml antibody
[6] = target: T2, human mGluR1 extracellular domain (human-mGluR1-ECD) (human, UniProt Q13255 19-592, limits assumed); assay: HTRF, soluble ECD
T2 construct: ECD construct made 'in a similar fashion' to the human mGluR5 one; also called hu-mGluR1
Method: as §1

[7] = target: T3, cynomolgus monkey mGluR5 extracellular domain (monkey-mGluR5-ECD) (cynomolgus monkey, UniProt P41594 21-580 (human entry), limits assumed); assay: HTRF, soluble ECD
T3 construct: ECD construct made 'in a similar fashion' to the human one; also called cyno-mGluR5
Method: as §1

T2 sequence (Q13255 other isoform, or with tags, fused parts or gaps limits assumed): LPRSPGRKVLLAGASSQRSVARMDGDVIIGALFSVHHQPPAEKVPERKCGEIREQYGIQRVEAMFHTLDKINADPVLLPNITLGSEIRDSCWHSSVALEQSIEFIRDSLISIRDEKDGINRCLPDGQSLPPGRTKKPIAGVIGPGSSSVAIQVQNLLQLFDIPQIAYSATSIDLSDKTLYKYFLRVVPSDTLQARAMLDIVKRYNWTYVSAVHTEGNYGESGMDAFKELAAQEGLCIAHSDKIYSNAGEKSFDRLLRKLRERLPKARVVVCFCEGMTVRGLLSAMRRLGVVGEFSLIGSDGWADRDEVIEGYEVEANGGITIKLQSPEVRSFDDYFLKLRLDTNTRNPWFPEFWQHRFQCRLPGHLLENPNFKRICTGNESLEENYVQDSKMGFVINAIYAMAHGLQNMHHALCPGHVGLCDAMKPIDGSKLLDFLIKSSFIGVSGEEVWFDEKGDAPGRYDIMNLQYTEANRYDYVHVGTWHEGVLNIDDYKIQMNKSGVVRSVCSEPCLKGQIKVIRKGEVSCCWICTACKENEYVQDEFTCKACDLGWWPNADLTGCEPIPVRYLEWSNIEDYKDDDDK
T1 sequence (P31424 other isoform, or with tags, fused parts or gaps limits assumed, form in doubt): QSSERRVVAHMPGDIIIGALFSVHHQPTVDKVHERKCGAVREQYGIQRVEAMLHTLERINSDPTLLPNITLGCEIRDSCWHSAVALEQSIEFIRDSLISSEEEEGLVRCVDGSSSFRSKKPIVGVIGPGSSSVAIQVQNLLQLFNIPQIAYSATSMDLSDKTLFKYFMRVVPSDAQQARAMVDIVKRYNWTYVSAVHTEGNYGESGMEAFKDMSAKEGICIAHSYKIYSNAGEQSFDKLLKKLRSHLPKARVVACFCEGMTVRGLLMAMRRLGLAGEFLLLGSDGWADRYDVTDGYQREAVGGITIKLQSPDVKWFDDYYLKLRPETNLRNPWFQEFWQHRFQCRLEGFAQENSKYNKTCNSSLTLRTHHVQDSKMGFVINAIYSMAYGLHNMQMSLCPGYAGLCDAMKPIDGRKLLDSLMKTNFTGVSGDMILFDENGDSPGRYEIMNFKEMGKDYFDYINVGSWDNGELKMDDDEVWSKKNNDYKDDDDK
human mGluR5 extracellular domain (human-mGluR5-ECD) (human), sequence (P41594 other isoform, or with tags, fused parts or gaps): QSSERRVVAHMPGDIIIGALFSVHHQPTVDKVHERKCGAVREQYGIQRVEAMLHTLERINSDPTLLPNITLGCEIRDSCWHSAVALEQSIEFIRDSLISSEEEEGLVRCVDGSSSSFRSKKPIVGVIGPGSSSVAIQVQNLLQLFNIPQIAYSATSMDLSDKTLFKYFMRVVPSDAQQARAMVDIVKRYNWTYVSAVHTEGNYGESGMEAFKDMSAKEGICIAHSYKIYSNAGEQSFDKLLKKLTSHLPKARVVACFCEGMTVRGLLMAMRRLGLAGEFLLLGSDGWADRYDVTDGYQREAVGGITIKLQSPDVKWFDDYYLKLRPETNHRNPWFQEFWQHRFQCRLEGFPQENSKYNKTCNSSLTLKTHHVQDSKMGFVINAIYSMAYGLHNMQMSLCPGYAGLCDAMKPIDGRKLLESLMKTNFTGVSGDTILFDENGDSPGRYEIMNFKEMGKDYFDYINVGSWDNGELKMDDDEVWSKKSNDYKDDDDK
T3 sequence (P41594 other isoform, or with tags, fused parts or gaps limits assumed): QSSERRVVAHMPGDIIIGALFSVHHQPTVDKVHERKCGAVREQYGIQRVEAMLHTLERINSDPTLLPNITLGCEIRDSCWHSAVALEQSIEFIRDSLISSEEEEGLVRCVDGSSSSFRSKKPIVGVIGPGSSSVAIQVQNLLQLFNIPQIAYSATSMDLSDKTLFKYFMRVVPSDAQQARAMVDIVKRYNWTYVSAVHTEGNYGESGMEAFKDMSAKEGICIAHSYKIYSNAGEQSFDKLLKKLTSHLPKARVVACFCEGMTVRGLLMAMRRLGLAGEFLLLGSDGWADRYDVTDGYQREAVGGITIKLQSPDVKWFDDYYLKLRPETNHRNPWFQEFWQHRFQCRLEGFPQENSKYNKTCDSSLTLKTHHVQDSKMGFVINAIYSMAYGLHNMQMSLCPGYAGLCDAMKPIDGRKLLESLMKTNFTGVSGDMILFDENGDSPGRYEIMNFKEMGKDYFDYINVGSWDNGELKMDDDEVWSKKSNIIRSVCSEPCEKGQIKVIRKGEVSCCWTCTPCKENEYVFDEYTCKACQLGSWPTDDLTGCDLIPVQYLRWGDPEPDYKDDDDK

B2: mGluR5 Ab19 (antibody, V domains shown)
VH: QEQLEESGGDLVKPEGSLTLTCTASGFSFSNYYYMCWVRQAPGKGLEWIACIYTSSGSTYYANWVNGRFTISRSTSLNTVTLQVTSLTAADTATYFCAKSFGVGGYSFNLWGQGTLVTVSS
VL: AYDMTQTPASVEVAVGGTVTIKCQASQSISSYLSWYQQKPGQRPKLLIYRASTLASGVSSRFKGSGSGTEYSLSISGMECDDAATYYCQQGTTISDVDNVFGGGTEVVVKR
notes: Rabbit variable regions on human heavy and light chain constant regions (chimeric)
pERK Assay Inhibition IC50-nM [1]: 1.07 nM
EC50 [2]: 0.453 nM
EC50 [3]: < 2 nM
EC50 [4]: 0.327 nM
mGluR5 (FL) cell binding-fold over background [5]: 38.3 fold

B3: mGluR5 Ab20 (antibody, V domains shown)
VH: QSVEESGGRLVTPGTPLTLTCTVSGFSLSDYGLNWVRQAPGKGLEWIGIIYASGSTYYANWAKGRFTISKTSTTVDLKMTSPTTEDTATYFCVRDSSATYDYFNLWGPGTLVTVSS
VL: YDMTQTPASVEVAVGGTVTIKCQASQSISSYLAWYQQKPGQPPRLLIYGASNLASGVPSRFKGSGSGTEYTLTISDLECADAATYYCQQALSPSNVDNAFGGGTEVVVKR
pERK Assay Inhibition IC50-nM [1]: 2.36 nM
EC50 [2]: 0.364 nM
EC50 [3]: < 2 nM
mGluR5 (FL) cell binding-fold over background [5]: 26.1 fold

B4: mGluR5 Ab16 (antibody, V domains shown)
VH: QSVEESGGRLVTPGTPLTLTCTASGFTISSYSMIWVRQAPGKGLESIGWINTGGSAYYANWAKGRFTISRTSTTVDLKMTSLTTEDTATYFCARDNNWSFNLWGQGTLVTVSS
VL: DIVMTQTPSSVSAAVGGTVTIKCQASQSIGTNLAWYQQKSGQPPKRLTYRASNLESGVPSRFKGSGSGTEFTLTISDLECADAATYYCQGGYYREGNSPTYPFGGGTEVVVKR
notes: as for B2
pERK Assay Inhibition IC50-nM [1]: 0.17 nM
EC50 [2]: 0.439 nM
EC50 [3]: < 2 nM
EC50 [4]: 0.427 nM
mGluR5 (FL) cell binding-fold over background [5]: 40 fold

B6: mGluR5 Ab13 (antibody, V domains shown)
VH: QSLEESGGDLVKPGASLTLTCTASGFSFSSSDYMCWVRQAPGKGLEWIGCIYTGDGTTYYASWAKGRFTISKTSSTTVTLQMTSLTAADTATYFCARGAGVGSYGYNLWGPGTLVTVSS
VL: DIVMTQTPASVEAAVGDTVTINCQASQNIYSNLAWYQQKPGQPPKLLIYRASTLASGVPSRFKGSGSGTQFTLTISDLECADAATYYCQSYYASSISNYFGGGTEVVVKR
notes: as for B2
pERK Assay Inhibition IC50-nM [1]: 0.22 nM
EC50 [2]: 0.183 nM
EC50 [3]: < 2 nM
EC50 [4]: 0.283 nM
mGluR5 (FL) cell binding-fold over background [5]: 37.4 fold

B8: mGluR5 Ab1 (antibody, V domains shown)
VH: QQQLEESGGGLVKPGGTLTLTCKVSGIDFSSYYYMCWVRQAPGKGLEWIACIYAGDGGTYYASWAKGRFTSSKTSSTTVTLQMTSLTAADTATYFCARGSGVGSYGYSLWGPGTLVTVSS
VL: DIVMTQTPASVEAAVGGTVTIKCQASESIYSNLAWYQQKPGQPPKLLIYRASNLESGVPSRFKGSGSGTEFTLTISDLECADAATYYCQGYYASTTTNAFGGGTEVVVKR
notes: as for B2
pERK Assay Inhibition IC50-nM [1]: 0.14 nM
EC50 [2]: 0.269 nM
EC50 [3]: < 2 nM
binding result [6]: no binding
EC50 [7]: 0.371 nM
EC50 [4]: 0.497 nM
mGluR5 (FL) cell binding-fold over background [5]: 40.8 fold

B9: mGluR5 Ab23 (antibody, V domains shown)
VH: B8 VH with V24A, S30N, S31D, L46P, A54N, G58D, S63N, S71I, S108N, P112Q
VL: B8 VL with N53T, E55A, T96I, A99V
pERK Assay Inhibition IC50-nM [1]: 0.14 nM
EC50 [2]: 0.367 nM
EC50 [3]: < 2 nM
mGluR5 (FL) cell binding-fold over background [5]: 37.9 fold

B10: mGluR5 Ab15 (antibody, V domains shown)
VH: QQLVESGGGLVKPGGTLTLTCKGSGIDFNDYYYICWVRQAPGKGLEWILCIYNGDGETYYANWAKGRFTISKTSSTTVTLQMTSLTGADTATYFCARGSGVGSYGYNFWGQGTLVTVSS
VL: B8 VL with S28N, E55A, T96V, A99G
notes: as for B2
pERK Assay Inhibition IC50-nM [1]: 0.18 nM
EC50 [2]: 0.506 nM
EC50 [3]: < 2 nM
EC50 [4]: 0.448 nM
mGluR5 (FL) cell binding-fold over background [5]: 41.3 fold

B13: mGluR5 Ab18 (antibody, V domains shown)
VH: QQQLEESGGGLVKPGGTLTLTCKASGLDFSNYHYMCWVRQAPGKRPEWIACIYNGDGTTYDASWAKGRFTSSKTSSTTVTLQMTSLTAADTATYFCARGSGVGSYGYNLWGQGTLVTVSS
VL: B8 VL with N53T, T95I, T96I
notes: as for B2
pERK Assay Inhibition IC50-nM [1]: 0.15 nM
EC50 [2]: 0.491 nM
EC50 [3]: < 2 nM
EC50 [4]: 0.395 nM
mGluR5 (FL) cell binding-fold over background [5]: 39.6 fold

Further lines, results first:

pERK Assay Inhibition IC50-nM [1]: 1.41 nM
EC50 [2]: 0.684 nM
EC50 [3]: < 2 nM
EC50 [4]: 0.229 nM
mGluR5 (FL) cell binding-fold over background [5]: 34.2 fold
B1: mGluR5 Ab21 (antibody, V domains shown)
VH: QSLEESGGGLVQPGASLTLTCTASGFSFSSNYWICWVRQAPGKGLEWIGCIYTGTGITWYASWVNGRVTISSTSSTTVTLQVNSLTAADTATYFCARGSGDIAWAWDLWGQGTLVTVSS
VL: DVVMTQTPASVSAAVGGTVTIKCQASQSIYTNLAWYQQKPGQPPKLLIYKASTLASGVSSRFKGSGSGTEFTLTISGVQCADAATYYCQCTGYGSSGWTFGGGTEVVVKR
notes: as for B2

pERK Assay Inhibition IC50-nM [1]: 2.29 nM
EC50 [2]: 0.748 nM
EC50 [3]: < 2 nM
binding result [6]: no binding
EC50 [7]: 0.322 nM
mGluR5 (FL) cell binding-fold over background [5]: 32.1 fold
B5: mGluR5 Ab8 (antibody, V domains shown)
VH: QSVEESGGRLVTPGTPLTLTCSVSGIDLSSYAMSWVRQAPGKGLEWIGVIYASGSTYYASWAKGRFTISKTSTTVDLKITSPTTGDTATYFCVRDTTATYNYFNLWGQGTLVTVSS
VL: AYDMTQTPASVEVAVGGTATIKCQASQSIYNYLAWYQQKPGQPPKLLIYEASTLASGVPSRFKGSGSGTEFTLTISDLECADAATYYCQQSLSPSNVGRRVFGGGTEVVVKR
notes: as for B2

pERK Assay Inhibition IC50-nM [1]: 3.91 nM
EC50 [2]: 0.536 nM
EC50 [3]: < 2 nM
EC50 [4]: 0.487 nM
mGluR5 (FL) cell binding-fold over background [5]: 31.1 fold
B7: mGluR5 Ab3 (antibody, V domains shown)
VH: QSLEESGGRLVTPGTPLTLTCTVSGIDLSSYAVGWVRQAPGKGLEYIGIIYASGNTWYASWVKGRFTISKTSTTVDLKLASLTTEDTATYFCARGHGATYDYFNLWGPGTLVTVSS
VL: AYDMTQTPASVEVAVGGTVTIKCQASQSISSYLAWYQQKPGQPPKLLIYDASDLASGVPSRFKGSGSGTEYTLTISGVQCDDAATYYCQQGLATANVDNVFGGGTEVVVKR
notes: as for B2

pERK Assay Inhibition IC50-nM [1]: 0.15 nM
EC50 [2]: 0.371 nM
EC50 [3]: < 2 nM
EC50 [4]: 0.308 nM
mGluR5 (FL) cell binding-fold over background [5]: 40.6 fold
B11: mGluR5 Ab14 (antibody, V domains shown)
VH: B8 VH with V24G, S30N, S31D, A54N, G58E, S63N, S71I, S108N, L109F, P112Q
VL: B8 VL with E55A, T96V
notes: as for B2

pERK Assay Inhibition IC50-nM [1]: 0.15 nM
EC50 [2]: 0.312 nM
EC50 [3]: < 2 nM
EC50 [4]: 0.305 nM
mGluR5 (FL) cell binding-fold over background [5]: 40.4 fold
B12: mGluR5 Ab17 (antibody, V domains shown)
VH: B8 VH with Q2R, T17A, V24A, M35I, G58T, S63T, K66E, S108N, P112Q
VL: B8 VL with S28Y, N53T, Y92F, A93P, T95I, T96I
notes: as for B2

pERK Assay Inhibition IC50-nM [1]: 0.16 nM
EC50 [2]: 0.341 nM
EC50 [3]: < 2 nM
binding result [6]: no binding
EC50 [7]: 0.36 nM
EC50 [4]: 0.476 nM
mGluR5 (FL) cell binding-fold over background [5]: 40.3 fold
B14: mGluR5 Ab2 (antibody, V domains shown)
VH: B8 VH with V24A, S31G, I52V, A54T, S71I, S108N, P112Q
VL: B8 VL with S94I
notes: as for B2

Source: patent US20220306734A1 (H LUNDBECK A S, published 2022)
